# Laboratory results: US20180022781A1 (INSERM INSTITUT NATIONAL DE LA SANTE ET DE LA RECHERCHE …, published 2018)
# Positions count from the first letter of the chain named.
# T1: full-length Ty1 IN (IN1-635) fused to Gal4 activating domain (Saccharomyces cerevisiae, UniProt P0C2I7 583-1217)
# T1 construct: the residue numbers of the constructs agree with it
# T1 sequence: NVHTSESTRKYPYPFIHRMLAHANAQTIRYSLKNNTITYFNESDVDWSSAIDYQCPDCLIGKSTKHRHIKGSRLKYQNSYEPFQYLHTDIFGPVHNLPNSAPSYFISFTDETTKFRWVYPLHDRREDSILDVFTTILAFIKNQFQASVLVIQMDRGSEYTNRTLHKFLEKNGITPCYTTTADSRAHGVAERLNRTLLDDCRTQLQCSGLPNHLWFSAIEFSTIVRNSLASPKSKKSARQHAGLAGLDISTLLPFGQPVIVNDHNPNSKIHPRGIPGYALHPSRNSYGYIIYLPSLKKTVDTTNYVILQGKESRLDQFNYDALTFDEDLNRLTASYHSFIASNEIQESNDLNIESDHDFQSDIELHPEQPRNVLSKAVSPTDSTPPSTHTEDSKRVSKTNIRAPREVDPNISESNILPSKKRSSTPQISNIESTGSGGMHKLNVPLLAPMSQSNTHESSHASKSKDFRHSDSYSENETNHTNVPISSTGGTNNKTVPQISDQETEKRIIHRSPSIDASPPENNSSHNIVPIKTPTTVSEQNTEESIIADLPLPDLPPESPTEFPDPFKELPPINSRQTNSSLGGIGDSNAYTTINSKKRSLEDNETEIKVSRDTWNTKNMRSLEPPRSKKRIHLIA
# B1: Ty1 integrase with S621 modified in A, expressed from a mutant Ty1 element (protein)
# chain: T1 sequence with S621A
# B2: Ty1 integrase with L622 modified in A, expressed from a mutant Ty1 element (protein)
# chain: T1 sequence with L622A
# B3: Ty1 integrase with K617 modified in A, expressed from a mutant Ty1 element (protein)
# chain: T1 sequence with K617A
# B4: Ty1 integrase with M619 modified in A, expressed from a mutant Ty1 element (protein)
# chain: T1 sequence with M619A
# B5: Ty1 integrase (IN) expressed from a functional Ty1 element (protein)
# chain: T1 sequence
# B6: Ty1 integrase with R619 [read as R620] modified in A, expressed from a mutant Ty1his3AI element (protein)
# chain: T1 sequence with R620A
# B7: S. pombe AC40 (AC40sp) fused to Gal4 binding domain (GBD-AC40sp) (other, UniProt P04386 1-147, looked up)
# chain: MKLLSSIEQACDICRLKKLKCSKEKPKCAKCLKNNWECRYSPKTKRSPLTRAHLTEVESRLERLEQLFLLIFPREDLDMILKMDSLQDIKALLTGLFVQDNVNKDAVTDRLASVETDMPLTLRQHRISATSSSEESSNKGQRQLTVSMAAVDRSRTEISVLSDRVTDVGSVDFPGYYFDEDNIWDLDKFKKNLKVSITSLDQETMVFEISGIDASIANAFRRILIAEIPTLAFEFVYIINNTSIIQDEVLSHRIGLVPISADPDMFKWFQHPLPGQEATHTDYDTVVFSLNKKCEFNKNAATDEKDPKRLYVNSEVYSGDLIWKPQGRQEERFADNPIRVVNPDIVVAKLRPGQEIDLEAHAILGIGQDHAKFSPVATASYRLLPTIHILSPIEGEDAVKFQKCFPKGVIELEEGPDGKKQARVADVRKDTVSRECLRHPEFADKVQLGRVRDHYLFSVESTGIMKPDVLFIKSIAVLKSKCLAVKSSLQNISSD
# Experiments:
# [1] = molecular target: S. pombe AC40 (AC40sp) (Schizosaccharomyces pombe) (UniProt O94616); experiment: cell-based or functional assay
# [2] = molecular target: AC40 subunit of RNA polymerase III, P07703
# Sequence of AC40 subunit of RNA polymerase III, P07703 (P07703 whole entry, looked up, tested part not stated): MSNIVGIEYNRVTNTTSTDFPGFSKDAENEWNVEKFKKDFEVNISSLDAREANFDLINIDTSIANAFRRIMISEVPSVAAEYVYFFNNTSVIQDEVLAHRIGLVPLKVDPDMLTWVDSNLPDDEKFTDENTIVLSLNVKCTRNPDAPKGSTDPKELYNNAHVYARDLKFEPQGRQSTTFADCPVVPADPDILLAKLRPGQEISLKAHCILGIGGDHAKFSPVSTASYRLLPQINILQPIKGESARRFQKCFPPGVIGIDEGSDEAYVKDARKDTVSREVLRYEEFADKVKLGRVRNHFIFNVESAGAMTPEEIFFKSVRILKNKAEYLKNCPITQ
# [3] = molecular target: S. pombe AC40 (AC40sp), O94616
# [4] = molecular target: T1, full-length Ty1 IN (IN1-635) fused to …; experiment: yeast two-hybrid
# Text: (A) Two-hybrid interaction between different domains of Ty1-IN and AC40 or AC40sp. Left, Ty1 structure. Two open reading frames, GAG and POL (historically TYA and TYB), are flanked by two LTRs (black triangles). Protease (PR), integrase (IN), reverse transcriptase-RNAse H (RT/RH). The left-right arrow indicates Ty1 sequences recovered in the two-hybrid screen (2-HS) with AC40 as bait (coordinates 2706-4342 in Ty1). Ty1-IN regions fused to Gal4 activating domain (GAD) are depicted. Right, serial 10-fold dilutions of liquid cultures of cells expressing AC40 or AC40sp fused to Gal4 binding domain (GBD) and the various GAD-IN proteins were plated onto non-selective (Control) or selective (Interaction) media to detect interactions. (B) Co-immunoprecipitation of AC40 and IN-Strep. A 6×HA epitope was inserted at the end of the endogenous RPC40 gene (AC40-HA) and IN was fused with streptavidine (IN-Strep) and expressed from a galactose inducible promoter. Immunoprecipitation of protein extracts was performed with anti-HA magnetic beads coupled to IgG. […] (C) Co-immunoprecipitation of AC40 and IN expressed from a galactose inducible functional Ty1 element. Immunoprecipitation conditions are as in FIG. 3B.
Molecule,PCR detection of Ty1 insertion events upstream of tG(GCC)C [2],relative frequency of Ty1his3AI retrotransposition [2],other results
Ty1 integrase (IN) expressed from a functional Ty1 element (from UniProt P0C2I7 583-1217) (enzyme),,,fraction of 5FOA^R cells arising from Ty1 integration [1]: 30 fold lower
B1,Ty1 integration upstream of a Pol III genes is severely affected in Ty1 mutants carrying mutations that abolish IN/AC40 interaction,Ty1 overall mobility decreases no more than two-fold in Ty1 mutants carrying mutations that abolish IN/AC40 interaction,
B2,Ty1 integration upstream of a Pol III genes is severely affected in Ty1 mutants carrying mutations that abolish IN/AC40 interaction,Ty1 overall mobility decreases no more than two-fold in Ty1 mutants carrying mutations that abolish IN/AC40 interaction,
B3,The loss of this pattern was also obtained in mutants of Ty1 in which either of the K617 or M619 residues where modified in A (alanine),Ty1 overall mobility decreases no more than two-fold in Ty1 mutants carrying mutations that abolish IN/AC40 interaction,
B4,The loss of this pattern was also obtained in mutants of Ty1 in which either of the K617 or M619 residues where modified in A (alanine),Ty1 overall mobility decreases no more than two-fold in Ty1 mutants carrying mutations that abolish IN/AC40 interaction,
B5,,,"PCR pattern of Ty1 insertions upstream of tG(GCC)C [3]: In cultures expressing AC40sp, the pattern was dramatically altered, showing both a significant decrease in Ty1 integration and an apparent relaxed periodicity between hotspots; frequency of IN-dependent Ty1HIS3 integration in a rad52Δ mutant [3]: the frequency of IN-dependent integration is 2-fold lower in AC40sp cells compared to AC40 cells; genome-wide Ty1 integration profile [3]: the loss-of-interaction mutant displayed a fundamentally different profile with only a slight bias to integrate near tRNA genes"
B6,,Ty1 overall mobility decreases no more than two-fold in Ty1 mutants carrying mutations that abolish IN/AC40 interaction,
B7,,,binding result [4]: no binding
